Assay results as given in patent US20250288684A1, “ACETAL-TYPE RELEASABLE POLYOXYETHYLENE DERIVATIVE, PRODUCTION METHOD THEREOF AND ACETAL-TYPE RELEASABLE POLYOXYETHYLENE CONJUGATE” (NOF CORPORATION, priority 2022, published 2025).

Legend:
[1] = Degradability test: decomposition in deuterium oxide buffer solution, NMR measurement; type: physicochemical; settings: pH 7.4; sodium phosphate deuterium oxide buffer solution, pD 7.4, 40° C.; β-alanine adduct amount by NMR; read-out: half-life (t½) (converted)
Protocol: Each of the compounds of Formulas (50), (51), (52) and (53) (20 mg) was dissolved in sodium phosphate deuterium oxide buffer solution (0.7 mL) having a pD of 7.4, and then placed in a thermostatic bath at 40° C., and NMR measurement was performed at a random timing. […] A half-life (t½) was calculated from a formula (in which ln represents a logarithm with the Napier's number as a base, and λ represents a product of an exponent of the Napier's number in an approximation formula of the graph and −1) based on the approximation formula.
Each of the compounds of Formulas (75), (76), (77) and (78) (20 mg) was dissolved in sodium phosphate deuterium oxide buffer solution (0.7 mL) having a pD of 7.4, and then placed in a thermostatic bath at 40° C., and NMR measurement was performed at a random timing.

[2] = Evaluation of stability of PEGylated insulin in buffer solutions with various pH values (HPLC); type: physicochemical; settings: pH 6.0, 7.0, 8.0 and 9.0 buffer solutions, 25° C.
Protocol: With 100 μL of 100 mM phosphate buffer solution (pH 6.0), 100 μL of 100 mM phosphate buffer solution (pH 7.0), 100 μL of 100 mM ammonium formate buffer solution (pH 8.0), or 100 μL of 100 mM ammonium formate buffer solution (pH 9.0), 100 μL of 0.5 mg/mL PEG(20k)-OCO-NH-insulin prepared in Comparative Example 4 or 100 μL of 0.5 mg/mL 2MPEG(20k)-OCO-NH-insulin prepared in Example 26 was mixed, and then allowed to stand at 25° C. and subjected to HPLC analysis at a random timing.

Compound | half-life at 28.6 mg/mL [1] [days] | change in amount of PEGylated insulin over time [2]
COCCOc1cccc(C2OCc3cc(COC(=O)NCCC(=O)O)ccc3O2)c1 (centres unmarked) [Formula (53)] | 231 | 
PEG(20k)-OCO-NH-insulin: insulin reacted with SUNBRIGHT MENP-20T [reference compound] |  | no decrease
